Source: paper doi:10.1101/557611

Experiments:
[1] = biological target: microtubules (without MAP7); assay: single-molecule TIRF microscopy
[2] = biological target: microtubules (without MAP7); assay: optical trapping
[3] = biological target: MAP7-decorated microtubules (mammalian MAP7) (UniProt O88735); assay: optical trapping

Row | Substance | mean dwell time [1] [s] | unbinding rate at zero load [2] [s⁻¹] | increase of the relative binding rate against microtubules without MAP7 [3] [%] | unbinding rate at zero load [3] [s⁻¹]
1 | MAP7 (ensconsin, E-MAP-115), mammalian, with N-terminal FLAG and SNAP-tags (from UniProt O88735 1-730) (natural protein) | 114 | – | – | –
2 | dynein on isolated phagosomes (teams of dynein motors) (complex) | – | 0.0237 | 10 | 0.0207
